Measured values taken from patent US20240131158A1 (Takeda / Millennium, published 2024).

T1: mouse recombinant TGFbR2-Fc protein (mouse, UniProt Q62312-1 24-184, limits assumed)
T1 construct: also called mouse TGFbR2; not shown: Fc part of the fusion protein
T1 sequence (looked up): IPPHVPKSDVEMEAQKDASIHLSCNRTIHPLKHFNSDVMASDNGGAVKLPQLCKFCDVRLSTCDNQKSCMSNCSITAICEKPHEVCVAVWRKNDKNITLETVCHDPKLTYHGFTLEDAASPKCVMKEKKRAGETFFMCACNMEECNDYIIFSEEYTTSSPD


Key:
[1] = target: T2, hTGFβR2-Fc (human, UniProt P37173 23-159); experiment: ELISA (figure legend)
T2 construct: Bought (RnD Systems); also called TGFbR2-Fc; human recombinant TGFbR2-Fc protein; not shown: Fc part of the bought fusion protein
Procedure: (§1) Supernatant from TGF-β modulating CAR-T cells were assayed by ELISA to detect anti-TGF-β and anti-TGFβR2 antibodies. Maxisorp 96 well plates were coated with recombinant human TGF-β […] or hTGFβR2-Fc (0.1 mg/ml; RnD System) in 100 μl coating buffer overnight at 4° C. Plates were washed with 1× wash buffer and blocked for 1 hour with reagent diluent at room temperature. CAR-T supernatant, recombinant TGFβR2-flag, or recombinant TGF-3-flag antibody was added and incubated for 2 hours at room temperature.
(§2) After another washing step, HRP-conjugated flag-tag antibody was added and incubated for 30 minutes at room temperature. Plates were washed and TMB substrate was added for 10-20 minutes. The reaction was stopped using Stop reagent and plates were read at 450 nm using a Pherastar Plate reader. ELISA using coated TGF-b detected high levels of TGF-b scFv VH-VL1 and TGF-b scFv VH-VL2 as compared to TGF-b scFv VL-VH using anti-flag tag HRP antibodies for binder detection (FIG. 3A). ELISA using coated TGFbR2-Fc detected high levels of TGFbR2 scFv VH-VL, TGFbR2 scFv VL-VH and hTGFbR2 VH1 from human CAR-T but was unable to detect mTGFbR2 VH1 (FIG. 3B). […]
(§3) Supernatant was harvested two days after transduction and frozen at −80′C until used for ELISA. […] Binding was detected using anti-flag HRP antibodies and the respective substrate. […]

[2] = target: T1, mouse recombinant TGFbR2-Fc protein; experiment: ELISA, mouse recombinant TGFbR2-Fc as capture, mouse CAR-T supernatant, anti-flag HRP detection
Procedure: as §1
(§4) After another washing step, HRP-conjugated flag-tag antibody was added and incubated for 30 minutes at room temperature. Plates were washed and TMB substrate was added for 10-20 minutes. The reaction was stopped using Stop reagent and plates were read at 450 nm using a Pherastar Plate reader. ELISA using coated TGF-b detected high levels of TGF-b scFv VH-VL1 and TGF-b scFv VH-VL2 as compared to TGF-b scFv VL-VH using anti-flag tag HRP antibodies for binder detection (FIG. 3A). ELISA using coated TGFbR2-Fc detected high levels of TGFbR2 scFv VH-VL, TGFbR2 scFv VL-VH and hTGFbR2 VH1 from human CAR-T but was unable to detect mTGFbR2 VH1 (FIG. 3B). TGF-β binders and TGFβR2 binders were secreted by TGF-β modulating CAR-T cells and bind to their cognate antigen.
Supernatant was harvested two days after transduction and frozen at −80′C until used for ELISA. ELISA was performed as described in Example 3. Human recombinant TGFbR2-Fc protein was used for capturing binders against human TGFbR2 and mouse recombinant TGFbR2-Fc protein was used for probing binding of TGFbR2 binders to mouse TGFbR2. Binding was detected using anti-flag HRP antibodies and the respective substrate. […] None of the binders from the tested supernatants bound to mouse TGFbR2 confirming specificity for human TGFBR2.

[3] = target: T2, hTGFβR2-Fc; experiment: ELISA, plate coated with hTGFβR2-Fc, human CAR-T supernatant, anti-flag HRP detection
Procedure: as §1, §4

[4] = target: T2, hTGFβR2-Fc; experiment: ELISA, human recombinant TGFbR2-Fc as capture, mouse CAR-T supernatant, anti-flag HRP detection
Procedure: as §1, §2, §3

[5] = target: T2, hTGFβR2-Fc; experiment: ELISA, plate coated with hTGFβR2-Fc, CAR-T supernatant, anti-flag HRP detection
Procedure: as §1, §4

T2 sequence (P37173 23-159 limits assumed): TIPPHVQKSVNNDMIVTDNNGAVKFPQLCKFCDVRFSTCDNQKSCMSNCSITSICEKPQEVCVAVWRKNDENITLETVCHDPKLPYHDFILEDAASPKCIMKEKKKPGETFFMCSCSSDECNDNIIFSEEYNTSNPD

binding result [2] | Binder | other results
no binding | hTGFbR2 VH2 monomer (VHH, Flag-tagged (anti-flag HRP detection); also called TGFbR2 hVH2) VHH: EVQLLESGGGLVQPGGSLRLSCAASGSTFTEYRMWWVRQAPGKGLEWVSAIEPIGHRTYYANSVRGRFTISRDNSKNTLYLQMNSLRAEDTAVYYCAKQAPGEKWARRWDLDYWGQGTLVTVSS | binding result [1]: binds
– | TGFbR2 scFv VL-VH (scFv, Secreted into CAR-T cell supernatant; Detected with anti-flag HRP) scFv: EIVLTQSPATLSLSPGERATLSCRASQSVRSYLAWYQQKPGQAPRLLIYDASNRATGIPARFSGSGSGTDFTLTISSLEPEDFAVYYCQQRSNWPPTFGQGTKVEIKGGGGSGGGGSGGGGSQLQVQESGPGLVKPSETLSLTCTVSGGSISNSYFSWGWIRQPPGKGLEWIGSFYYGEKTYYNPSLKSRATISIDTSKSQFSLKLSSVTAADTAVYYCPRGPTMIRGVIDSWGQGTLVTVSS | binding result [3]: binds
no binding | hTGFbR2 VH2 G4S dimer (VHH, Flag-tagged; also called hTGFbR2-VH2 dimer) EVQLLESGGGLVQPGGSLRLSCAASGSTFTEYRMWWVRQAPGKGLEWVSAIEPIGHRTYYANSVRGRFTISRDNSKNTLYLQMNSLRAEDTAVYYCAKQAPGEKWARRWDLDYWGQGTLVTVSSGGGGSEVQLLESGGGLVQPGGSLRLSCAASGSTFTEYRMWWVRQAPGKGLEWVSAIEPIGHRTYYANSVRGRFTISRDNSKNTLYLQMNSLRAEDTAVYYCAKQAPGEKWARRWDLDYWGQGTLVTVSS | –
no binding | hTGFbR2 scFv VH-VL G4S dimer (scFv, Built here from its name (scFv - G4S - scFv); Flag-tagged; also called TGFbR2 scFv VH-VL dimer) QLQVQESGPGLVKPSETLSLTCTVSGGSISNSYFSWGWIRQPPGKGLEWIGSFYYGEKTYYNPSLKSRATISIDTSKSQFSLKLSSVTAADTAVYYCPRGPTMIRGVIDSWGQGTLVTVSSGGGGSGGGGSGGGGSEIVLTQSPATLSLSPGERATLSCRASQSVRSYLAWYQQKPGQAPRLLIYDASNRATGIPARFSGSGSGTDFTLTISSLEPEDFAVYYCQQRSNWPPTFGQGTKVEIKGGGGSQLQVQESGPGLVKPSETLSLTCTVSGGSISNSYFSWGWIRQPPGKGLEWIGSFYYGEKTYYNPSLKSRATISIDTSKSQFSLKLSSVTAADTAVYYCPRGPTMIRGVIDSWGQGTLVTVSSGGGGSGGGGSGGGGSEIVLTQSPATLSLSPGERATLSCRASQSVRSYLAWYQQKPGQAPRLLIYDASNRATGIPARFSGSGSGTDFTLTISSLEPEDFAVYYCQQRSNWPPTFGQGTKVEIK | –
no binding | hTGFbR2 VH3 G4S dimer (VHH, It is built here from its name (VH3 - G4S - VH3); Flag-tagged; also called hTGFbR2-VH3 dimer) EVQLLESGGGLVQPGGSLRLSCAASGFTFGTDQMWWVRQAPGKGLEFVSRIDSPGGRTYYANSVKGRFTISRDNSKNTLYLQMNSLRAEDTAVYYCAKRQPAGVSGKYVDYWGQGTLVTVSSGGGGSEVQLLESGGGLVQPGGSLRLSCAASGFTFGTDQMWWVRQAPGKGLEFVSRIDSPGGRTYYANSVKGRFTISRDNSKNTLYLQMNSLRAEDTAVYYCAKRQPAGVSGKYVDYWGQGTLVTVSS | –
no binding | TGFbR2 scFv VH-VL (scFv, Secreted into CAR-T cell supernatant; Detected with anti-flag HRP; also called hTGFbR2 scFv VH-VL monomer; TGFbR2 scFv VH-VL monomer) scFv: QLQVQESGPGLVKPSETLSLTCTVSGGSISNSYFSWGWIRQPPGKGLEWIGSFYYGEKTYYNPSLKSRATISIDTSKSQFSLKLSSVTAADTAVYYCPRGPTMIRGVIDSWGQGTLVTVSSGGGGSGGGGSGGGGSEIVLTQSPATLSLSPGERATLSCRASQSVRSYLAWYQQKPGQAPRLLIYDASNRATGIPARFSGSGSGTDFTLTISSLEPEDFAVYYCQQRSNWPPTFGQGTKVEIK | binding result [4]: binds
– | hTGFbR2 VH1 (VHH, Single domain VH; Secreted into CAR-T cell supernatant; Detected with anti-flag HRP) VHH: EVQLLESGGGLVQPGGSLRLSCAASGFTFGTEQMWWVRQAPGKGLEFVSRIDSPGGRTYYADSVKGRFTISRDNSKNTLYLQMNSLRAEDTAVYYCAKRRPTGVSGTFYDYWGQGTLVTVSS | binding result [3]: binds
no binding | hTGFbR2 VH3 monomer (VHH, Flag-tagged) VHH: EVQLLESGGGLVQPGGSLRLSCAASGFTFGTDQMWWVRQAPGKGLEFVSRIDSPGGRTYYANSVKGRFTISRDNSKNTLYLQMNSLRAEDTAVYYCAKRQPAGVSGKYVDYWGQGTLVTVSS | binding result [1]: binds
– | mTGFbR2 VH1 (VHH, Single domain VH expressed in human CAR-T cells; Flag-tagged) VHH: EVQLLESGGGLVQPGGSLRLSCAASGFTFTTYGMGWVRQAPGKGLEWVSWIEKTGNKTYYADSVKGRFTISRDNSKNTLYLQMNSLRAEDTAVYYCAKARHIKVRSRDFDYWGQGTLVTVSS | binding result [5]: no binding
